Laboratory results as given in the supplement of paper PMC7877785.
± gives the uncertainty stated by the source.

Assay: self-splicing fitness, log relative to wild type (ln ratio); higher = more splicing; Tetrahymena group I intron in knt gene, E. coli kanamycin selection, DiMSum; sequences stand for … in CUCUCU…GGAGGGAAAAGUUAUCAGGCAUGCACCUGGUAGCUAGUCUUUAAACCAAUAGAUUGCAUCGGUUUAAAAGGCAAGACCGUCAAAUUGCGGGAAAGGGGUCAACAGCCGUUCAGUACCAAGUCUCAGGGGAAACUUUGAGAUGGCCUUGCAAAGGGUAUGGUAAUAAGCUGACGGACAUGGUCCUAACCACGCAGCCAAGUCCUAAGUCAACAGAUCUUCUGUUGAUAUGGAUGCAGUUCACAGACUAAAUGUCGGUCGGGGAAGAUGUAUUCUUCUCAUAAGAUAUAGUCGGACCUCUCCUUAAUGGGAGCUAGCGGAUGAAGUGAUGCAACACUGGAGCCGCUGGGAACUAAUUUGUAUGCGAAAGUAUAUUGAUUAGUUUUGGAGUACUCGUGGUCG
Method in brief: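 Library with all eight P1ex-region intron nucleotides randomised, intron inside the knt kanamycin-resistance gene on pET-22b(+), in E. coli BL21(DE3). Cells grew overnight at 37°C or 30°C on LB agar with or without 25 μg/mL kanamycin (plus 100 μg/mL carbenicillin, 50 μM IPTG, 0.2% rhamnose), in six replicate transformations. Pooled colonies were amplicon-sequenced on Illumina HiSeq 2500. DiMSum fitness is the error-weighted combination of wild-type-normalised replicate fold changes, kanamycin versus none.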

Row | Sequence | self-splicing fitness (ln) (37 °C) | self-splicing fitness (ln) (30 °C)
1 | UCUCAGCAAUAUUACGCCGA | -0.855 ± 0.18 | –
2 | UCUCAGCAAUAUUACGCCGU | -1.56 ± 0.22 | -2.55 ± 0.25
3 | UCUCAGCAAUAUUACGCCUA | -1.22 ± 0.2 | -2.3 ± 0.19
4 | UCUCAGCAAUAUUACGCGAG | -0.582 ± 0.15 | -3.73 ± 0.37
5 | UCUCAGCAAUAUUACGCGCA | -0.617 ± 0.18 | -0.638 ± 0.16
6 | UCUCAGCAAUAUUACGCUAC | -2.14 ± 0.41 | -3.11 ± 0.35
7 | UCUCAGCAAUAUUACGCUGA | -3.19 ± 0.4 | -2.7 ± 0.25
8 | UCUCAGCAAUAUUACGCUUA | -2.93 ± 0.24 | -2.42 ± 0.31
9 | UCUCAGCAAUAUUACGGAGC | -2.27 ± 0.47 | -2.1 ± 0.47
10 | UCUCAGCAAUAUUACGGCAC | -1.79 ± 0.38 | -2.33 ± 0.24
11 | UCUCAGCAAUAUUACGGGCU | -2.43 ± 0.44 | -1.77 ± 0.18
12 | UCUCAGCAAUAUUACGGGGU | -2.8 ± 0.25 | -4.46 ± 0.37
13 | UCUCAGCAAUAUUACGGGUC | -1.52 ± 0.16 | -4.37 ± 0.34
14 | UCUCAGCAAUAUUACGGUCG | -0.825 ± 0.14 | -1.96 ± 0.15
15 | UCUCAGCAAUAUUACGGUGU | -1 ± 0.097 | -2.03 ± 0.086
16 | UCUCAGCAAUAUUACGGUUG | -2.41 ± 0.21 | -3.46 ± 0.17
17 | UCUCAGCAAUAUUACGUACC | -1.69 ± 0.25 | -3.25 ± 0.46
18 | UCUCAGCAAUAUUACGUGCG | -1.44 ± 0.18 | -3 ± 0.22
19 | UCUCAGCAAUAUUACGUGGG | -2.48 ± 0.21 | -3.43 ± 0.25
20 | UCUCAGCAAUAUUACGUGUA | -0.902 ± 0.08 | -1.47 ± 0.089
21 | UCUGAGCAAUAUUACGACUG | -2.26 ± 0.28 | -3.15 ± 0.27
22 | UCUGAGCAAUAUUACGAGGC | -2.39 ± 0.26 | -2.78 ± 0.35
23 | UCUGAGCAAUAUUACGAUCA | -2.38 ± 0.36 | -3.84 ± 0.4
24 | UCUGAGCAAUAUUACGAUGA | 0.0454 ± 0.18 | -0.887 ± 0.12
25 | UCUGAGCAAUAUUACGCAGG | -1.29 ± 0.21 | -2.76 ± 0.32

Row | Sequence | self-splicing fitness (ln) (37 °C) | self-splicing fitness (ln) (30 °C)
26 | UCUGAGCAAUAUUACGCGAU | -3.02 ± 0.25 | -3.14 ± 0.27
27 | UCUGAGCAAUAUUACGCUCA | -2.09 ± 0.28 | -2.29 ± 0.24
28 | UCUGAGCAAUAUUACGCUUU | -3.19 ± 0.19 | -3.64 ± 0.23
29 | UCUGAGCAAUAUUACGGAUA | -1.57 ± 0.25 | -3.08 ± 0.47
30 | UCUGAGCAAUAUUACGGCAA | -1.8 ± 0.35 | -2.44 ± 0.4
31 | UCUGAGCAAUAUUACGGCCU | -1.6 ± 0.3 | -3.3 ± 0.29
32 | UCUGAGCAAUAUUACGGGAA | -1.82 ± 0.33 | –
33 | UCUGAGCAAUAUUACGUACU | -2.72 ± 0.48 | -2.66 ± 0.34
34 | UCUGAGCAAUAUUACGUCUU | -2.9 ± 0.24 | -2.36 ± 0.21
35 | UCUUAGCAAUAUUACGAUAC | -3.06 ± 0.34 | –
36 | UCUUAGCAAUAUUACGAUUA | -1.34 ± 0.2 | -2.37 ± 0.24
37 | UCUUAGCAAUAUUACGCCAU | -2.26 ± 0.42 | -2.69 ± 0.3
38 | UCUUAGCAAUAUUACGCCCA | -0.128 ± 0.47 | –
39 | UCUUAGCAAUAUUACGCCUG | -1.51 ± 0.27 | -2.25 ± 0.24
40 | UCUUAGCAAUAUUACGCGUG | -2.21 ± 0.15 | -3.05 ± 0.18
41 | UCUUAGCAAUAUUACGCUCG | -1.43 ± 0.44 | -0.481 ± 0.25
42 | UCUUAGCAAUAUUACGCUGG | -1.64 ± 0.23 | -2.64 ± 0.24
43 | UCUUAGCAAUAUUACGGACG | – | -2.42 ± 0.3
44 | UCUUAGCAAUAUUACGGACU | -0.0771 ± 0.26 | -2.76 ± 0.34
45 | UCUUAGCAAUAUUACGGCGU | -1.19 ± 0.2 | -0.535 ± 0.15
46 | UCUUAGCAAUAUUACGGGCG | -0.448 ± 0.17 | -1.5 ± 0.14
47 | UCUUAGCAAUAUUACGGGUU | -1.61 ± 0.18 | -2.2 ± 0.15
48 | UCUUAGCAAUAUUACGUCUA | -2.19 ± 0.2 | -3.59 ± 0.31
49 | UCUUAGCAAUAUUACGUGCA | -1.07 ± 0.095 | -1.95 ± 0.12
